The source of these data is the supplement of paper PMC12764529.

Series [1] in a line: folding stability dG unfold from trypsin proteolysis; higher = more stable. In a few lines: (§1)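 Designed mini-proteins with no cysteine and under 80 residues were kept only if AlphaFold2 dimer inter-PAE was above 15. In a PA-tagged cDNA display construct, they were digested with trypsin and chymotrypsin and then sequenced. K50 was inferred by Bayesian fitting of counts, and unfolding free energy was derived per protease or combined against a sequence-predicted unfolded-state K50 and a shared folded-state K50.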

The nature of series [2]: folding stability dG unfold from chymotrypsin proteolysis; higher = more stable. In a few lines: as §1
Series [3] can be described thus: folding stability dG unfold (combined trypsin and chymotrypsin); higher = more stable. The essentials:
as §1

± gives the half width of the 95% confidence interval.

For the sequence “SAGGKTLVIKMKFKTKEEAEEAIKKLLEELGLPEGAKIEVTVERDENGELTVTITITVKDPEVLKALSAGGS [r8_85_TrROS_Hall]”, the “folding stability dG unfold” value in series [1] worked out at 2 ± 0.11 kcal/mol; in series [2] it was 2.66 ± 0.036 kcal/mol; in series [3] it was 2.48 ± 0.076 kcal/mol.
As for “SAGGKTLYVRIIIENKKTGKKEEKIIKIKNVKTLDELLEKAKKEAEKKGYKIKKIEVYDKKTGKKLKLSAGG [r13_771_TrROS_Hall]”, the “folding stability dG unfold” value was 1.79 ± 0.088 kcal/mol in series [1], 1.28 ± 0.27 kcal/mol in series [2] and 1.73 ± 0.39 kcal/mol in series [3].
In the same order, the values of “SAGGKTTVLIITENPDGTPKAIPIPLDELDIEEIVELIKELVEEGRKLKVFVPADTPPELIKAIKEAASAGG [r13_251_TrMRF]” are 3.4 ± 0.087 kcal/mol, 3.2 ± 0.067 kcal/mol and 3.31 ± 0.056 kcal/mol.
With “SAGGKTVEIKVKVKSLEELKAAIEALKKAGIKDVKVTKIELEKNEDGSLYARVTIEVEPAPEVVEEKESAGG [r13_174_TrROS_Hall]”, the “folding stability dG unfold” value in series [1] was 2.78 ± 0.095 kcal/mol; in series [2], 3.08 ± 0.073 kcal/mol; in series [3] it was 3.15 ± 0.2 kcal/mol.
In the same order, the values of “SAGGKTVIIEGMSLEELLELIKNAKPGDTITITLKVKVEEYKYENGKLVEKKEFEKTLTLTLKIEEKESAGG [r13_632_TrROS_Hall]” are 2.57 ± 0.28 kcal/mol, 4.29 ± 0.19 kcal/mol and 4.1 ± 0.33 kcal/mol.
For “SAGGKTVLVPVKSPEEAKIFIENFPESYDKVIVFNPETGTKAVFYIDPKTREVKEVKVEKFDLNDPNASAGG [r13_945_TrMRF]”, the “folding stability dG unfold” value was 0.913 ± 0.017 kcal/mol in series [1], 1.22 ± 0.052 kcal/mol in series [2] and 1.12 ± 0.066 kcal/mol in series [3].
Regarding “SAGGKTVTIKVTRPDGKELTIEFEEKDGKVTVRVFDKDGKLVKEIEVDSLEEALKALEEAGYEVEVVPSAGG [r13_315_TrROS_Hall]”, the results for the “folding stability dG unfold” value in series [1], in series [2] and in series [3] were 3.49 ± 0.22 kcal/mol, 3.36 ± 0.15 kcal/mol and 3.42 ± 0.2 kcal/mol, respectively.
Consider “SAGGKTVTITVPEGMTEEEVKALAEKLIEEGFKEVTVTVTRTKTETLPNGKTKTVTETKTYVFKLPPSAGGS [r16_44_TrROS_Hall]”, for which the “folding stability dG unfold” value in series [1] was 3.45 ± 0.092 kcal/mol; in series [2], 4.062 ± 0.036 kcal/mol; in series [3], 3.88 ± 0.088 kcal/mol.
In the same order, the values of “SAGGKTYTIVLPIPPNVPLEEYIKKIEKLLKKLKKNVPISFNKQKKLPNGYYLINFTLTDNKVTGFGSAGGS [r8_7_TrMRF]” are 1.06 ± 0.059 kcal/mol, 1.91 ± 0.12 kcal/mol and 1.72 ± 0.18 kcal/mol.
In the same order, the values of “SAGGKVAAPAQPLASTKVERTTLPTGTTVTYVTVTSSAVPTPTTYTFSPGENPGDFAAATGLPVTLVSAGGS [r16_676_JUSTAS]” are -0.488 ± 0.29 kcal/mol, 0.339 ± 0.083 kcal/mol and 0.126 ± 0.092 kcal/mol.
On to “SAGGKVEVETKAYFIPETGEVVLLTTVRVETDEEPSEEERENLPEGATRTETFTFVFVFPAKPGSLLSAGGS [r8_274_TrMRF]”, for which the “folding stability dG unfold” value in series [1] worked out at 2.46 ± 0.064 kcal/mol; in series [2], 3.52 ± 0.044 kcal/mol; in series [3], 3.19 ± 0.092 kcal/mol.
The matching figures for “SAGGKVKILKTEVFEEGDYLKIVDFVEVDSLEEIEELVKNGLENVEAEVRLLPDGRLLVVLVAEIPKESAGG [r13_506_TrMRF]”: 1.26 ± 0.031 kcal/mol, 1.4 ± 0.026 kcal/mol and 1.36 ± 0.04 kcal/mol.
In the case of “SAGGKVKVEIDPKTIKVTFYDEKGKKIGEIEIEVKPLPIVIENIPLEDIEALKEKFPDIPIIINPDNISAGG [r13_235_TrMRF]”, the figures for the “folding stability dG unfold” value in series [1], in series [2] and in series [3] were 2.47 ± 0.22 kcal/mol, 1.73 ± 0.17 kcal/mol and 1.83 ± 0.2 kcal/mol, respectively.
In the same order, the values of “SAGGKVLVFYAPSPELIEKWAKELGLKLKKVSKEGDKFVAEFELPSGEKVLVVADEEAFKKLGIDPEKISAG [r5_12_TrMRF]” are 2.93 ± 0.1 kcal/mol, 4.09 ± 0.12 kcal/mol and 3.74 ± 0.18 kcal/mol.
In the same order, the values of “SAGGKVVPILIEGELTAEEIKALIPPGELAVLYDLETGEVRVFSPEDLDKIPSDVPLRFLLLIFRPDSAGGS [r8_66_TrMRF]” are 2.93 ± 0.051 kcal/mol, 4.31 ± 0.058 kcal/mol and 3.92 ± 0.11 kcal/mol.
On to “SAGGKVVPKNVKLPVTKEAEELAKKLAPELGYKKAEVKVKSAVEGYVKVEIYFPETGKKVEITVPVGSAGGS [r16_281_TrMRF]”, for which the results for the “folding stability dG unfold” value in series [1], in series [2] and in series [3] were -0.0217 ± 0.086 kcal/mol, 1.04 ± 0.025 kcal/mol and 0.739 ± 0.07 kcal/mol, respectively.
Consider “SAGGKWIMFMIPPGEEIEDPNGLEIRYDPEEGEFEIENNKRPVKIPVHPHPDGWYMITIEIPPGVEVSAGGS [r16_245_TrROS]”, for which the “folding stability dG unfold” value in series [1] was 1.5 ± 0.074 kcal/mol; in series [2], 1.12 ± 0.23 kcal/mol; in series [3] it was 1.55 ± 0.22 kcal/mol.
In the same order, the values of “SAGGKWRTIQLPGISIQLNPKDGTITVMMPSDMMEELKEAFGPGFEIDEIHHHPDGWMQMTIPIKPPSAGGS [r8_415_TrROS]” are 1.18 ± 0.035 kcal/mol, 1.75 ± 0.11 kcal/mol and 1.57 ± 0.15 kcal/mol.
In the same order, the values of “SAGGKYKVEIIDPKEGEKVFIEIDEETKKITIWNAKTGEKVAEFEIKDLKEGDTITLPNGFVIKIEKESAGG [r13_720_TrROS_Hall]” are 3.67 ± 0.14 kcal/mol, 4.67 ± 0.079 kcal/mol and 4.61 ± 0.12 kcal/mol.
In the same order, the values of “SAGGLAEEIVEELKERFPGMDVDIDVKEEEDPNNGWVKITIMVRVRNPDDNKPRHEIQLDIEIPVDDSAGGS [r8_207_TrROS]” are 1.69 ± 0.056 kcal/mol, 1.89 ± 0.036 kcal/mol and 1.82 ± 0.086 kcal/mol.
With “SAGGLDGDMKVDEMEHDPNNGTYRYKAEAGDQWWTFEMKVVPVIPPIPISISPEDLQEGNWNISIWFSAGGS [r16_809_TrROS]”, the “folding stability dG unfold” value in series [1] turned out to be 1.46 ± 0.05 kcal/mol; in series [2], 2.39 ± 0.08 kcal/mol; in series [3] it was 2.09 ± 0.2 kcal/mol.
In the same order, the values of “SAGGLNFEIIEVSPNHIIARFPDAGYIIMAKIKMEWKPKRDPENGKPRYEPKFKIDIHVIPLKPGQPISAGG [r13_322_TrROS]” are 3.27 ± 0.09 kcal/mol, 4.66 ± 0.17 kcal/mol and 4.09 ± 0.12 kcal/mol.
In the same order, the values of “SAGGLTVVSVDPSTNTITIKLGNKDIEITVPPDRPPEVTFTRDPSGTYTITITTEGSTTTYTIPLSQLPSAG [r5_500_JUSTAS]” are 2.45 ± 0.052 kcal/mol, 3.143 ± 0.015 kcal/mol and 2.85 ± 0.07 kcal/mol.
In the same order, the values of “SAGGLVIPVTFMFQDWEEAEEFANEIARELANLYPGRPVKIDVEVEPIRNPNNGKRYYMVEATIEIDPSAGG [r13_545_TrROS]” are 2.01 ± 0.059 kcal/mol, 2.77 ± 0.033 kcal/mol and 2.6 ± 0.15 kcal/mol.
For “SAGGLVLPPDAVVTGTLTAPRPDGSTVTVRARVRFPPRPPPPPLVLVRLPDGSVRPVRSLEEARRLASAGGS [r16_580_TrMRF]”, the “folding stability dG unfold” value in series [1] is 3.16 ± 0.11 kcal/mol; in series [2], 3.76 ± 0.059 kcal/mol; in series [3] it was 3.49 ± 0.1 kcal/mol.
In the same order, the values of “SAGGLYVFDKNGKIISKVPKVEPIPIVITFPDGEKVLFEKYPGLNIIVVSYEGENPEKVKEAVKKILSSAGG [r13_701_TrMRF]” are 0.835 ± 0.075 kcal/mol, 1.06 ± 0.14 kcal/mol and 0.977 ± 0.13 kcal/mol.
“SAGGMATITVTSDGVLKVTFVDPATGSPVKTIPLPLSEVEQLGAEKGSPLSLEEILKELGYPTEITLGSAGG [r13_836_JUSTAS]”: the “folding stability dG unfold” value in series [1] was found to be 1.52 ± 0.059 kcal/mol; in series [2] it was 1.48 ± 0.008 kcal/mol; in series [3] it was 1.51 ± 0.045 kcal/mol.
In the same order, the values of “SAGGMDPDDLKGMPPEQAKDIVRDWIREYMQERNPNMPPGMKITDVPVEVRDPDNGKEIEVKVEIENYSAGG [r13_555_TrROS]” are -0.936 ± 0.37 kcal/mol, -0.00917 ± 0.33 kcal/mol and -0.242 ± 0.33 kcal/mol.
In the same order, the values of “SAGGMEEVIEEAIEAAKKGENVTITLPASVDPEVVLKALEEASGLKVTPISVTPLPDGTLRIEVKIESAGGS [r16_318_JUSTAS]” are 4.24 ± 0.19 kcal/mol, 4.24 ± 0.14 kcal/mol and 5.08 ± 0.54 kcal/mol.
In the same order, the values of “SAGGMEFTPDQFLIIVLGLPDDTLEVAIIPAGDIEKAFEELGFPLEEVDILEIVEADLTPEEAEELAESAGG [r13_850_TrMRF]” are 1.81 ± 0.1 kcal/mol, 1.55 ± 0.046 kcal/mol and 1.68 ± 0.088 kcal/mol.
“SAGGMELFELEFEAEITPLEEPDKPVPVKIRILKRVEPVPNEPGFKVHYRALLENEEGVVPFEFTLDSAGGS [r16_300_TrMRF]”: the “folding stability dG unfold” value in series [1] was 0.998 ± 0.055 kcal/mol; in series [2] it was 1.74 ± 0.085 kcal/mol; in series [3], 1.42 ± 0.085 kcal/mol.
In the case of “SAGGMETWRIKVDGKEIEVTVEDGKITVTFADGTKVEITLEEGETPEEVAKRLAEELGADKVEIEKVPSAGG [r13_852_TrROS_Hall]”, the “folding stability dG unfold” value was 3.38 ± 0.48 kcal/mol in series [1], 3.31 ± 0.078 kcal/mol in series [2] and 3.3 ± 0.19 kcal/mol in series [3].
For the sequence “SAGGMEVTLRITAEGPEQLEKIQEILDELDVEEVNPTENEVEFRFPGPEPLAKLKEIAEELGLKVEGSAGGS [r16_88_TrMRF]”, the “folding stability dG unfold” value in series [1] is -0.457 ± 0.23 kcal/mol; in series [2], -0.635 ± 0.28 kcal/mol; in series [3], -0.377 ± 0.25 kcal/mol.
The matching figures for “SAGGMEYDPETKTFHLHVPGGNLPELREAIENAPDRLVTIEVEDPLTDKPRLFTLPAEEARKFLEAGSAGGS [r16_797_TrMRF]”: -0.182 ± 0.12 kcal/mol, -0.455 ± 0.25 kcal/mol and -0.254 ± 0.095 kcal/mol.
In the same order, the values of “SAGGMGTPFTTLTVTLEFPSSESLEEAKEKAEELAEELRRAHPEVVSIEIEVSKEGDTYKVKLTVTIASSAG [r5_446_JUSTAS]” are 4.37 ± 0.22 kcal/mol, 4.72 ± 0.11 kcal/mol and 4.7 ± 0.13 kcal/mol.
The matching figures for “SAGGMHHLEIYRFEDRKLVVLHLEDKPVVIEVEPGLTEEEAAEKAIEALKEAFPDKEIVIDSVEVKEESAGG [r13_884_TrMRF]”: -0.0489 ± 0.064 kcal/mol, 0.41 ± 0.11 kcal/mol and 0.217 ± 0.11 kcal/mol.
